Two molecules from US20260159551A1 (SRI INTERNATIONAL, published 2026) can be followed below.

Experiment [1] has as its target T1, Recombinant human transferrin receptor (human, UniProt P02786 89-760, limits assumed).
T1 construct: Recombinant protein; also called transferrin receptor (human protein)
Nature of the experiment: biolayer interferometry (OctetRED 96); biotinylated peptide on streptavidin probe, receptor as analyte; human transferrin receptor. As for the experimental part:
(§1) Recombinant human transferrin receptor was absorbed onto high binding ELISA plates at 1 μg/mL. […] Retained MTS peptide was detected using streptavidin-HRP and TMB reagent. The absorbance was measured at 450 nm and is proportional to the amount of MTS peptide captured by transferrin receptor. As shown, MTS2_V1-2 binds to […] in a concentration dependent manner which saturates at higher concentrations. By comparison, MTS3_V1-2 and a scrambled control peptide of MTS2_V1-2 show no binding. The binding affinity of MTS2_V1-2 for transferrin receptor was determined by biolayer interferometry on a OctetRED 96 system. The biotinylated MTS2_V1-2 peptide was captured on streptavidin probe. The kon and koff rate were determined at various concentrations of human or mouse transferrin receptor allowing for determination of the dissociation constant.

The target of experiment [2] is T1, Recombinant human transferrin receptor. Nature of the experiment: ELISA: recombinant human transferrin receptor coated at 1 ug/mL, biotinylated peptide titrated, detection with streptavidin-HRP/TMB, absorbance at 450 nm. On the procedure:
as §1
In general terms: An ELISA detects its analyte on a solid surface through an enzyme-linked reagent.

Experiment [3] deals with T2, Mouse transferrin receptor (mouse, UniProt Q62351 89-763, limits assumed).
T2 construct: Used as the analyte in BLI; also called mouse receptor
Nature of the experiment: biolayer interferometry (OctetRED 96); biotinylated peptide on streptavidin probe, receptor as analyte; mouse transferrin receptor. On the procedure:
as §1
For orientation: BLI is a label-free optical method that tracks binding on a fibre tip over time.

In general, Kd refers to the free concentration of one partner at which half of the binding sites on the other are occupied at equilibrium, for simple one-to-one binding. What is called EC50 (read off the curve) is the concentration giving half of the maximal effect.

Ends that are not written are not given here.

T1 sequence (P02786 89-760 limits assumed): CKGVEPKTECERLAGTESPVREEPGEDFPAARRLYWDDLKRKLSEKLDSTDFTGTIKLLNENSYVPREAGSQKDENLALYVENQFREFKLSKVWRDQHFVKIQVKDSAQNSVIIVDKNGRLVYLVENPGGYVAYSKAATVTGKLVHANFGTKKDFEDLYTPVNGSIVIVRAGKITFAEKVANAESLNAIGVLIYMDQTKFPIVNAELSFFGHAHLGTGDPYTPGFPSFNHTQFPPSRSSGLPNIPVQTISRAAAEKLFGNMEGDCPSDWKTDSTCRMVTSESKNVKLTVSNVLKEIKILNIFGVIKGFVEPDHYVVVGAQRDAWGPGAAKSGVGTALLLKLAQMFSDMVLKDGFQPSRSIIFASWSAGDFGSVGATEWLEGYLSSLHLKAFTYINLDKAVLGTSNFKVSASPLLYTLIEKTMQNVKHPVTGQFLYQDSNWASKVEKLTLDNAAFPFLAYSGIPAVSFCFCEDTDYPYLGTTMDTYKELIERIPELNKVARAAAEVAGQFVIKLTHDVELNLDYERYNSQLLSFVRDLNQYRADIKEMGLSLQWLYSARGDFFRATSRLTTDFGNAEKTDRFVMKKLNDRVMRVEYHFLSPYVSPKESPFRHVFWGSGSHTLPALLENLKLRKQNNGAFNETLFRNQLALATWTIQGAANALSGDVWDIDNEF
T2 sequence (Q62351 89-763 limits assumed): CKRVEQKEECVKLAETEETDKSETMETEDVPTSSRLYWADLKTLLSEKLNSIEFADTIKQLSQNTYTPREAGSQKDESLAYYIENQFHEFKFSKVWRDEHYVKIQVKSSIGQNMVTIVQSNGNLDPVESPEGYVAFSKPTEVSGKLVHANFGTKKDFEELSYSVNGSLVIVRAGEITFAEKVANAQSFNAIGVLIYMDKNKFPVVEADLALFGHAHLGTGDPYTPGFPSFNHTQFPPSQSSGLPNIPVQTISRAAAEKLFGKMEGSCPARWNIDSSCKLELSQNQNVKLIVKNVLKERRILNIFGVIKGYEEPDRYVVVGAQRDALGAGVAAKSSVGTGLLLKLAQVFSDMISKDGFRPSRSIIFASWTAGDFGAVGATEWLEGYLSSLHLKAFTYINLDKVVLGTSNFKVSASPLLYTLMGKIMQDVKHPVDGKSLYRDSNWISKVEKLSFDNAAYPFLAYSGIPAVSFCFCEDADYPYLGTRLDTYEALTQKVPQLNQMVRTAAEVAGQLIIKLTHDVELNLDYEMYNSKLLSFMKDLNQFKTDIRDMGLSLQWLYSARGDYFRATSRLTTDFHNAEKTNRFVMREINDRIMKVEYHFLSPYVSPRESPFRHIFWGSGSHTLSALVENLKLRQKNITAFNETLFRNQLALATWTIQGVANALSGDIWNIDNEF

B1: MTS2_V1-2 (biotinylated dimeric Ac-FPSWTSKNQQWTNQRQ) (peptide)
peptide: Ac-FPSWTSKNQQWTNQRQ
modifications: also: dimer: C-terminus joined through a linker to a dimeric core, biotinylated, place not given here
notes: Biotinylated for the ELISA and for capture on the streptavidin probe in BLI; also called dimer version of MTS2_V1; biotinylated MTS2_V1-2
With B1, the Kd in experiment [1] is 210 nM; in experiment [3] it was 12 nM. The “EC50 (read off the curve)” value in experiment [2] was around 100 nM.

B2: MTS3_V1-2 (biotinylated dimeric Ac-SKETYSMNAQRQHERS) (peptide)
peptide: Ac-SKETYSMNAQRQHERS
modifications: also: dimer: C-terminus joined through a linker to a dimeric core, biotinylated, place not given here
notes: Biotinylated for the ELISA; also called dimer version of MTS3_V1; biotinylated MTS3_V1-2
As for B2, the binding result in experiment [2] is listed as “no binding (tested: 1000 nM)”.
